Consider six molecules from paper PMC8046733 (Immunity, 2021).

B1: RM11-43 heavy-chain variant I52A (antibody, V domains shown)
VH: QVQLVQSGAEVKKPGASVKLSCKASGFTFRIYAISWVRQAPGQGLEWMGEIAPLGGITNYAQKFQGRVTITADTSTSTAYMELSSLRSEDTAVYYCARGETKMITVLAGTTGGGLDSWGQGTLVTVSS
VL: DIQMTQSPSSLSASVGDKVTITCHASQGISSWLAWYQQKPGKAPKPLIYAASSLQSGVPSRFSGGGSGADYTLTISSLQPEDFATYYCQQYDDLPRTFGQGTKVEIK
B2: RM11-43 heavy-chain variant I56A (antibody, V domains shown)
VH: QVQLVQSGAEVKKPGASVKLSCKASGFTFRIYAISWVRQAPGQGLEWMGEIIPLGGATNYAQKFQGRVTITADTSTSTAYMELSSLRSEDTAVYYCARGETKMITVLAGTTGGGLDSWGQGTLVTVSS
VL: DIQMTQSPSSLSASVGDKVTITCHASQGISSWLAWYQQKPGKAPKPLIYAASSLQSGVPSRFSGGGSGADYTLTISSLQPEDFATYYCQQYDDLPRTFGQGTKVEIK
B3: RM11-43 heavy-chain variant L53A (antibody, V domains shown)
VH: QVQLVQSGAEVKKPGASVKLSCKASGFTFRIYAISWVRQAPGQGLEWMGEIIPAGGITNYAQKFQGRVTITADTSTSTAYMELSSLRSEDTAVYYCARGETKMITVLAGTTGGGLDSWGQGTLVTVSS
VL: DIQMTQSPSSLSASVGDKVTITCHASQGISSWLAWYQQKPGKAPKPLIYAASSLQSGVPSRFSGGGSGADYTLTISSLQPEDFATYYCQQYDDLPRTFGQGTKVEIK
B4: RM2-01 heavy-chain variant I51A (antibody, V domains shown)
VH: QVQLVQSGAEVKKPGASVKLSCKASGFTFRIYAISWVRQAPGQGLEWMGEAVPLGGITNYAQNFQGRAAITADTSINTAYMELSSLRSDDTAVYYCARVRTALVGPREGIFDFWGQGVLVTVSS
VL: DIQMTQSPSSLSASVGDRVSITCRASQTISTYLAWYQQKPGKVPKLLIYTASTLETGVPSRFSGSGSGTEFTLTISSLQPEDFATYYCQQHDSHPYSFGQGTKVEIK
B5: RM2-01 heavy-chain variant I56A (antibody, V domains shown)
VH: QVQLVQSGAEVKKPGASVKLSCKASGFTFRIYAISWVRQAPGQGLEWMGEIVPLGGATNYAQNFQGRAAITADTSINTAYMELSSLRSDDTAVYYCARVRTALVGPREGIFDFWGQGVLVTVSS
VL: DIQMTQSPSSLSASVGDRVSITCRASQTISTYLAWYQQKPGKVPKLLIYTASTLETGVPSRFSGSGSGTEFTLTISSLQPEDFATYYCQQHDSHPYSFGQGTKVEIK
B6: RM2-01 heavy-chain variant P52aA (antibody, V domains shown)
VH: QVQLVQSGAEVKKPGASVKLSCKASGFTFRIYAISWVRQAPGQGLEWMGEIVALGGITNYAQNFQGRAAITADTSINTAYMELSSLRSDDTAVYYCARVRTALVGPREGIFDFWGQGVLVTVSS
VL: DIQMTQSPSSLSASVGDRVSITCRASQTISTYLAWYQQKPGKVPKLLIYTASTLETGVPSRFSGSGSGTEFTLTISSLQPEDFATYYCQQHDSHPYSFGQGTKVEIK

For this test, the target named is HCV-1 E1E2 (autologous strain) (Hepatitis C virus genotype 1a, strain …, UniProt P26664, strain). Kind of test: ELISA.
As for B1, the binding result is listed as “binds”. For B2 the value was “binds”; for B3, “binds”; for B4, “binds”.

B5: the binding result is “binds”. The value for B6 was “binds”.
